Data published in publication PMC5156392, “Structure and Mechanism of Staphylococcus aureus TarS, the Wall Teichoic Acid β-glycosyltransferase Involved in Methicillin Resistance” (PLoS Pathogens, 2016).

Experiments:
[1] = test system: CC(=O)N[C@H]1[C@@H](OP(=O)(O)OP(=O)(O)OC[C@H]2O[C@@H](n3ccc(=O)[nH]c3=O)[C@H](O)[C@@H]2O)O[C@H](CO)[C@@H](O)[C@@H]1O; test: purified protein; settings: donor hydrolysis reaction without polyRboP acceptor; varied UDP-GlcNAc
[2] = target: the molecule itself; test: SEC-MALS; Superdex 200 HR 10/30, 30 mM Hepes pH 7.3, 500 mM NaCl, 5% glycerol; full-length TarS run at 25 μM
[3] = target: the molecule itself; test: crystal structure

| Molecule | Km [1] [µM] | other results |
| --- | --- | --- |
| TarS1-349 (Staphylococcus aureus subsp. aureus Mu50) | 21 ± 2 | – |
| full-length TarS (TarS 1-573; wild-type) (Staphylococcus aureus subsp. aureus Mu50) | 45 ± 3 | – |
| Staphylococcus aureus TarS, full-length protein (1-573) (enzyme, also called full-length TarS; wild-type TarS; source: E. coli Rosetta (DE3), pET41b, purified (Heparin HP, Superdex 200)) MMKFSVIVPTYNSEKYITELLNSLAKQDFPKTEFEVVVVDDCSTDQTLQIVEKYRNKLNLKVSQLETNSGGPGKPRNVALKQAEGEFVLFVDSDDYINKETLKDAAAFIDEHHSDVLLIKMKGVNGRGVPQSMFKETAPEVTLLNSRIIYTLSPTKIYRTALLKDNDIYFPEELKSAEDQLFTMKAYLNANRISVLSDKAYYYATKREGEHMSSAYVSPEDFYEVMRLIAVEILNADLEEAHKDQILAEFLNRHFSFSRTNGFSLKVKLEEQPQWINALGDFIQAVPERVDALVMSKLRPLLHYARAKDIDNYRTVEESYRQGQYYRFDIVDGKLNIQFNEGEPYFEGIDIAKPKVKMTAFKFDNHKIVTELTLNEFMIGEGHYDVRLKLHSRNKKHTMYVPLSVNANKQYRFNIMLEDIKAYLPKEKIWDVFLEVQIGTEVFEVRVGNQRNKYAYTAETSALIHLNNDFYRLTPYFTKDFNNISLYFTAITLTDSISMKLKGKNKIILTGLDRGYVFEEGMASVVLKDDMIMGMLSQTSENEVEILLSKDIKKRDFKNIVKLNTAHMTYSLK | – | stoichiometry N [2]: 3 |
| TarS_(217-573) (domain or fragment, source: limited thermolysin proteolysis of purified full-length TarS (from E. coli Rosetta (DE3)), crystallised directly) VSPEDFYEVMRLIAVEILNADLEEAHKDQILAEFLNRHFSFSRTNGFSLKVKLEEQPQWINALGDFIQAVPERVDALVMSKLRPLLHYARAKDIDNYRTVEESYRQGQYYRFDIVDGKLNIQFNEGEPYFEGIDIAKPKVKMTAFKFDNHKIVTELTLNEFMIGEGHYDVRLKLHSRNKKHTMYVPLSVNANKQYRFNIMLEDIKAYLPKEKIWDVFLEVQIGTEVFEVRVGNQRNKYAYTAETSALIHLNNDFYRLTPYFTKDFNNISLYFTAITLTDSISMKLKGKNKIILTGLDRGYVFEEGMASVVLKDDMIMGMLSQTSENEVEILLSKDIKKRDFKNIVKLNTAHMTYSLK | – | binding result [3]: binds |
